This note sets out measurements from patent US20120022128.

Series [1] has as its system recombinant Akt.
Series [2] concerns T1, recombinant PKIB.
T1 sequence: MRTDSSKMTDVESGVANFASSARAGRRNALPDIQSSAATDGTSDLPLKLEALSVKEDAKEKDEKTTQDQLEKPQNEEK

For recombinant PKA-C kinase, in series [1], the “phosphorylation of Akt-Ser473, in vitro kinase assay with recombinant proteins (western blot with anti-phospho-Akt (Ser473) antibody)” value is “phosphorylated Ser473-specific antibody detected phosphorylated Akt when PKA-C kinase reacted with recombinant Akt”. The “phosphorylation of Akt-Ser473 by PKA-C, in vitro kinase assay with recombinant proteins” value in series [2] is reported as “the phosphorylation level of Akt (Ser473) was clearly enhanced by addition of PKIB”.
